Source: US20180153986A1 (BRIGHAM AND WOMEN S HOSPITAL, published 2018)

Biological target: T1, human CEACAM1 (carcinoembryonic antigen related cell adhesion molecule 1) (human, UniProt P13688 35-526, limits assumed)
T1 construct: also called hCEACAM1; BGP
T1 sequence: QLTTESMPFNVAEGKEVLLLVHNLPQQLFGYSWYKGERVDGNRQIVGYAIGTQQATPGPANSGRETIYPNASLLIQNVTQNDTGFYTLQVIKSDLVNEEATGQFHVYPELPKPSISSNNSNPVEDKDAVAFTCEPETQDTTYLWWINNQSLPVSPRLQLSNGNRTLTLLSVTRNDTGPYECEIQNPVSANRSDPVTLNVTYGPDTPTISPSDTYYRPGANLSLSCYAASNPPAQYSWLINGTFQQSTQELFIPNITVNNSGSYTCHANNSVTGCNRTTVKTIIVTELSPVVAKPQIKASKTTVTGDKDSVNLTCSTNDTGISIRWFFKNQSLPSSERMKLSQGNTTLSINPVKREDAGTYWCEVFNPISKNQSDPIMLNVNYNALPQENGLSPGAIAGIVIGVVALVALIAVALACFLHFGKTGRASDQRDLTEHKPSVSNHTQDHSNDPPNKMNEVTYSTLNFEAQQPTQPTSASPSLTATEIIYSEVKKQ
Experiment: method not described ('as demonstrated herein'); support is structural prediction and co-expression

binding result: binds
B1: human TIM-1 (T-cell immunoglobulin and mucin domain-containing protein 1) (receptor)
chain: SVKVGGEAGPSVTLPCHYSGAVTSMCWNRGSCSLFTCQNGIVWTNGTHVTYRKDTRYKLLGDLSRRDVSLTIENTAVSDSGVYCCRVEHRGWFNDMKITVSLEIVPPKVTTTPIVTTVPTVTTVRTSTTVPTTTTVPTTTVPTTMSIPTTTTVLTTMTVSTTTSVPTTTSIPTTTSVPVTTTVSTFVPPMPLPRQNHEPVATSPSSPQPAETHPTTLQGAIRREPTSSPLYSYTTDGNDTVTESSDGLWNNNQTQLFLEHSLLTANTTKGIYAGVCISVLVLLALLGVIIAKKYFFKKEVQQLSVSFSSLQIKALQNAVEKEVQAEDNIYIENSLYATD
notes: also called HAVCR; HAVCR-1
